From US20040146906A1 come the findings set out here.

This test addresses PTH receptor 1 on ROS 17/2.8 rat osteoblast cells (rat) (UniProt P25961). The experiment in a line: cell-based or functional assay.
Sequence of UniProt P25961 (P25961 27-591): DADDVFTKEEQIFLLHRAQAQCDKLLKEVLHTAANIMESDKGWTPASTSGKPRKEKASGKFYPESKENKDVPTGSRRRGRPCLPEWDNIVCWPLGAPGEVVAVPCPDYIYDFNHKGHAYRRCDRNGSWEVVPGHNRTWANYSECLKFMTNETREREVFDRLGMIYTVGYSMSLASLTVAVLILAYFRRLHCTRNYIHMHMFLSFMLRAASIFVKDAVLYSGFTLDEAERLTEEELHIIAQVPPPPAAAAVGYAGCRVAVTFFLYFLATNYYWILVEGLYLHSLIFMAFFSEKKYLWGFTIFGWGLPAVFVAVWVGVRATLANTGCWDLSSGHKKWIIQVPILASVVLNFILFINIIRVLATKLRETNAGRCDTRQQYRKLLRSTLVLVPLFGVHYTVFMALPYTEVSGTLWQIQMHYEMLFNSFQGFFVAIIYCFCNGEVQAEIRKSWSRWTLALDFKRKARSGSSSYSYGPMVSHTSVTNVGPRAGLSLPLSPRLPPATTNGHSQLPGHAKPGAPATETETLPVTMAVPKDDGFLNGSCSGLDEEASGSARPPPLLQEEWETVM

“human PTH (1-34) (from UniProt P01270 32-65) (peptide)”: the PAIGB expression (fold induction) was 6 fold.
